Patent US7951914B2, “Genetically modified cyclic-nucleotide controlled ion channels” (Forschungszentrum Julich GmbH, priority 2001, dated 2011)
Positions count from the first letter of the chain named. In names and notes the source's numbering stands.

Assays:
[1] = system: endogenous phosphodiesterase (PDE); experiment: Fluorescence-optical Ca2+ measurement: phosphodiesterase inhibition with T537M cAMP sensor; assay type: cell-based, human; details: IBMX 0-100 μm, then 5 μm forskolin, FIG. 5E
Source text: (§1) The excitation wavelength was 485 nm. The emission wavelength was 520 nm.
The effect of a phosphodiesterase (PDE) inhibitor on the forskolin-induced change in intracellular Ca^2+ concentration is shown. Cells which stably express the T537M mutants of the α3-CNG channel were first treated with different concentrations of the PDE inhibitor IBMX and then stimulated with 5 μm forskolin. […] The IBMX concentration was 0 μm (filled circles), 10 μm (open circles), 50 μm (filled triangles) or 100 μm (open triangles).

Adenosine A2B receptor = biological target: T1, Adenosine A2B receptor (Rattus norvegicus, UniProt P29276); details: Peakman and Hill 1994, primary rat astrocytes; read-out: K1/2 value indicated in the literature; cited from earlier work
T1 construct: host or cells: primary rat astrocytes
T1 sequence (P29276 1-332): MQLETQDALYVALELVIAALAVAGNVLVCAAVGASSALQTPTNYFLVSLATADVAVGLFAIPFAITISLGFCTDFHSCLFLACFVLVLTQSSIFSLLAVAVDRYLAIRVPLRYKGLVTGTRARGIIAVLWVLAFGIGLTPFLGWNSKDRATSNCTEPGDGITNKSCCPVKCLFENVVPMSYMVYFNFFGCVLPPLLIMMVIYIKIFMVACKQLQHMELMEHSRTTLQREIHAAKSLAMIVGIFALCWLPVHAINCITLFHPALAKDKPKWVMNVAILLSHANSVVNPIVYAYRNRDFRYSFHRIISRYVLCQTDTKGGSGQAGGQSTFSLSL

[2] = biological target: T2, corticotropin-releasing factor (CRF) receptor (Rattus norvegicus, UniProt P35353); experiment: Fluorescence-optical Ca2+ measurement: CRF receptor with T537M cAMP sensor; assay type: cell-based; details: agonist CRF 100-1,000 pM, FIG. 5B
T2 construct: expressed in transfected cells; host or cells: HEK293 stably co-expressing pcCRFR1 and bovine α3 T537M
T2 sequence (P35353 24-415): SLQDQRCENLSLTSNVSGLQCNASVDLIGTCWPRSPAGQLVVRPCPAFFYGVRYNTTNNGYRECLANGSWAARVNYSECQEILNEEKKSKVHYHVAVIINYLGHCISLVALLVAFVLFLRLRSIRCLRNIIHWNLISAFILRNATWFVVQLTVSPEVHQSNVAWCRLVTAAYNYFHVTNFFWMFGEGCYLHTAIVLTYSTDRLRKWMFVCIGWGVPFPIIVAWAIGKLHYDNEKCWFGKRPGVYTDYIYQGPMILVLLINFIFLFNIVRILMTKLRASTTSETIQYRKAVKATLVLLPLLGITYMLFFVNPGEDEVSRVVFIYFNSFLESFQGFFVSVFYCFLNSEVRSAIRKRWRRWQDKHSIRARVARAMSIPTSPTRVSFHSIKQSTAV
Experimental: The CRF receptor was cloned by carrying out a PCR of primary strand cDNA of rat hypophyses, using the primers #843 (5′-[…]-3′) (SEQ ID NO 11) and #842 (5′-[…]-3′) (SEQ ID NO 12). A 100 μl PCR mixture comprised 10 ng of primary strand cDNA, 1×PCR buffer for Taq polymerase incl. 1.5 mM of MgCl2, 200 μm of dNTPs, 1 U of Taq polymerase and in each case 150 ng of the two primers. The PCR conditions were as follows. 2 minutes of denaturation at 94° C., followed by 44 cycles of in each case 45 s at 94° C., 45 s at 56° C., 75 s at 72° C. The 1271 bp fragment was cloned via BamHI and SacI in pBluescript SK^—into (pBCRFR1). […]
FIG. 5B depicts the fluorimetrically measured change in intracellular Ca^2+ concentration in cells which stably express both the corticotropin-releasing factor (CRF) receptor and the T537M mutant of the α3-CNG channel. The time course of fluorescence intensity after stimulation of the cells with the agonist CRF is shown. […]
Cells which stably express the corticotropin-releasing factor (CRF) receptor and the T537M mutants of the α3-CNG channel were treated with the helical antagonist 9-41 (Rivier J., Rivier C., and Vale W. W. (1984) Synthetic competitive antagonists of corticotropin-releasing factor: effect on ACTH secretion in the rat. Science, 224, 889-891), before being stimulated with CRF (1 nM). The time course of fluorescence intensity is shown. […]

[3] = biological target: Drosophila dopamine receptor (Drosophila melanogaster, UniProt P41596); details: dopamine 25-600 nM, FIG. 5A
Experimental: On the day after transfection, the cells were seeded into a multiwell plate with 96 wells. The cell density per well was 2×10^4 cells.
The fluorimetric measurements of intracellular Ca^2+ concentrations were carried out in multiwell plates with 96 wells (FIG. 5A-5G). The cells were loaded with the Ca^2+-sensitive fluorescent dye Fluo-4 one hour before the measurement. The loading solution contained 120 mM of NaCl, 3 mM of KCl, 50 mM of glucose, 10 mM of Hepes (pH 7.4), 3 mM of MgCl2 and 4 μm of Fluo4-AM (molecular probes). The measuring solution contained 120 mM of NaCl, 3 mM of KCl, 50 mM of glucose, 10 mM of Hepes (pH 7.4) and 3 mM of CaCl2. The time course of the change in fluorescence intensity after application of agonists, antagonists, enzyme activators or enzyme inhibitors was registered using a fluorescence reader (FLUOstar, BMG-Labtechnologies). The excitation wavelength was 485 nm. The emission wavelength was 520 nm.

α3-CNG channel = experiment: Fluorescence-optical Ca2+ measurement: cAMP sensor sensitivity of α3-CNG channel variants after adenosine stimulation; assay type: cell-based
Source text: as §1
The extent of the change in intracellular Ca^2+ concentration (fluorescence signal) was plotted as a function of time. […] Cells which stably express the T537S mutant of the α3-CNG channel were also stimulated for comparison.

[4] = system: homooligomeric bovine α3 CNG channels; experiment: Patch clamp electrophysiology of inside-out patches: activation of heterologously expressed CNG channels by cAMP and cGMP; assay type: biochemical; details: for Hill coefficient n, cAMP / Hill coefficient n, cAMP, averaged / Hill coefficient n, cGMP / Hill coefficient n, cGMP, averaged: +100 mV; for Hill coefficient n, cAMP: fit of FIG. 1B / 3B; for Hill coefficient n, cAMP, averaged / Hill coefficient n, cGMP, averaged: normalized Hill equation; for Hill coefficient n, cAMP, averaged: averaged parameters (FIG. 1C / 3C); for Hill coefficient n, cGMP: fit of FIG. 2B / 4B; for Hill coefficient n, cGMP, averaged: averaged parameters (FIG. 2C / 4C); for relative selectivity: times more selective for cAMP: quotient K1/2 cGMP / K1/2 cAMP; for relative selectivity: times more selective for cGMP: quotient of K1/2 values
Source text: For this purpose, the corresponding nucleic acids were cloned into the expression vector pcDNA3.1 (Invitrogen) (see Methods). The expression constructs were then used to transform the cells of the human embryonic kidney cell line 293 (HEK293 cells) and the corresponding proteins were functionally expressed therein either transiently or stably (see Methods). The results of the studies are depicted in FIGS. 1-4. FIGS. 1-4 B depict the dependence of the average current on the cAMP concentration and cGMP concentration, respectively, in each case in the form of a dose-response relationship. The results of these measurements were used to calculate the sensitivity of the CNG channels to cAMP and cGMP. […] EMBO J., 13, 5040-5050. For electrophysiological characterization, the cells were transferred to glass slides which had been coated with poly L-lysine, on the day after transfection. The electrophysiological studies were then carried out on the following day. […] The electrophysiological characterization of the genetically modified CNG channels was carried out using the patch clamp technique under voltage clamping conditions. […] inside-out patches were excised from cells which stably expressed genetically modified or wild-type CNG channels. The bath solution containing different concentrations of cyclic nucleotides was used to flow over the membrane patches. Starting from a holding voltage of 0 mV, sudden voltage changes were applied to different test voltages between -100 mV and +100 mV at the patch with a step width of 20 mV. The currents were registered and analyzed using standard methods.

[5] = maximum stimulation with 25 μm adenosine

Drosophila dopamine receptor, sequence (P41596 20-511): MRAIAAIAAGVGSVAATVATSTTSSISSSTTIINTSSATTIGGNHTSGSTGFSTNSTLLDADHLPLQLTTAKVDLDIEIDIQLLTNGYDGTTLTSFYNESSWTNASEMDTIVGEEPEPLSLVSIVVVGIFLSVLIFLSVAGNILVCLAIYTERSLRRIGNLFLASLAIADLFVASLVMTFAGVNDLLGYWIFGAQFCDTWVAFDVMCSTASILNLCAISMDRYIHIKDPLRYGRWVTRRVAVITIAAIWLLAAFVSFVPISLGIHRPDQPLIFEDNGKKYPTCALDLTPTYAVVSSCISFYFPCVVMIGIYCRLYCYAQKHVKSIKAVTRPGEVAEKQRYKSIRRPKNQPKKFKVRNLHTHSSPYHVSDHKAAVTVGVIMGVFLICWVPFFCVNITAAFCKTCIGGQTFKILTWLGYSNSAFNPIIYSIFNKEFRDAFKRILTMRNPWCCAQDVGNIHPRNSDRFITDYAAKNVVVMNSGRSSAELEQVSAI

With `CC(C)Cn1c(=O)n(C)c(=O)c2[nH]cnc21` [IBMX] as the molecule, how does the “extent of the forskolin-induced change in intracellular Ca2+ concentration” value [1] read?
Its value is “depend on the concentration of the PDE inhibitor”.

With `Nc1ncnc2c1ncn2[C@@H]1O[C@H](CO)[C@@H](O)[C@H]1O` [adenosine] as the molecule, how does the EC50 (Adenosine A2B receptor) read?
The EC50 was 5 µM.

Which “speed and extent of the change in Ca2+” value [2] does the source give for “CRF: corticotropin-releasing factor, agonist of the CRF receptor” here?
The value was “depend on the CRF concentration”.

Which “speed and extent of the change in Ca2+ concentration” value [3] does the source give for `NCCc1ccc(O)c(O)c1` [dopamine] here?
Its value is “depend on the dopamine concentration”.

B1: T537M: bovine α3 CNG channel with methionine in place of threonine T537 (SEQ ID NO 4) (protein, UniProt Q03041 1-663, looked up, variant T537M)
Cyclic nucleotide-gated …: MTEKANGVKSSPANNHNHHAPPAIKASGKDDHRASSRPQSAAADDTSSELQQLAEMDAPQQRRGGFRRIARLVGVLREWAYRNFREEEPRPDSFLERFRGPELHTVTTQQGDGKGDKDGEGKGTKKKFELFVLDPAGDWYYRWLFLIALPVLYNWCLLVARACFSDLQKGYYIVWLVLDYVSDVVYIADLFIRLRTGFLEQGLLVKDTKKLRDNYIHTMQFKLDVASIIPTDLIYFAVGIHNPEVRFNRLLHFARMFEFFDRTETRTSYPNIFRISNLILYILIIIHWNACIYYAISKSIGFGVDTWVYPNITDPEYGYLSREYIYCLYWSTLTLTTIGETPPPVKDEEYLFVIFDFLIGVLIFATIVGNVGSMISNMNATRAEFQAKIDAVKHYMQFRKVSKEMEAKVIRWFDYLWTNKKSVDEREVLKNLPAKLRAEIAINVHLSTLKKVRIFQDCEAGLLVELVLKLRPQVFSPGDYICRKGDIGKEMYIIKEGKLAVVADDGVTQYALLSAGSCFGEISILNIKGSKMGNRRMANIRSLGYSDLFCLSKDDLMEAVTEYPDAKRVLEERGREILMKEGLLDENEVAASMEVDVQEKLEQLETNMDTLYTRFARLLAEYTGAQQKLKQRITVLETKMKQNNEDDSLSDGMNSPEPPAEKP
For B1, which “change in fluorescence signal (intracellular Ca2+)” value (α3-CNG channel; stimulation with 3 μm adenosine (about half maximum)) is on record?
The value was “distinct increase in the fluorescence signal”.

What about the “Hill coefficient n, cAMP” value [4] of the same molecule?
Its value is 2.4.

And the “Hill coefficient n, cAMP, averaged” value [4]?
The value was 2.4.

And the “Hill coefficient n, cGMP” value [4]?
The value was 2.0.

What about the “Hill coefficient n, cGMP, averaged” value [4] of the same molecule?
The value was 1.9.

What about the “relative selectivity: times more selective for cAMP” value [4] of the same molecule?
Its value is “about 6 times”.

What about the “times less sensitive to cGMP in comparison with the T537S mutant” value ([4]; ratio of K1/2 values) of the same molecule?
Its value is 21 times.

What about the “times less sensitive to cGMP in comparison with the wild type” value ([4]; ratio of K1/2 values) of the same molecule?
The value was “about 9 times”.

And the “times more sensitive to cAMP in comparison with the T537S mutant” value ([4]; ratio of K1/2 values)?
The value was “about 5 times”.

What about the “times more sensitive to cAMP in comparison with the wild type” value ([4]; ratio of K1/2 values) of the same molecule?
The value was “about 30 times”.

B2: Wild Type: wild-type α3 subunit of the bovine CNG channel (SEQ ID NO 2) (protein)
chain: B1 Cyclic nucleotide-gated … with M537T
modifications: Bovine
With B2 as the molecule, how does the “change in fluorescence signal (intracellular Ca2+)” value (α3-CNG channel; [5]) read?
The value was “no increase in the fluorescence signal”.

And the “Hill coefficient n, cAMP, averaged” value [4]?
Its value is 2.0.

What about the “Hill coefficient n, cGMP, averaged” value [4] of the same molecule?
Its value is 2.0.

What about the “relative selectivity: times more selective for cGMP” value [4] of the same molecule?
The value was “about 50 times”.

B3: T537V: bovine α3 CNG channel with valine in place of threonine T537 (SEQ ID NO 6) (protein)
chain: B1 Cyclic nucleotide-gated … with M537V
modifications: Bovine
Which results are given for B3?
Hill coefficient n, cAMP [4]: 2.2; Hill coefficient n, cAMP, averaged [4]: 1.5; Hill coefficient n, cGMP [4]: 2.2; Hill coefficient n, cGMP, averaged [4]: 2.1; relative selectivity: times more selective for cAMP [4]: about 6 times; times less sensitive to cAMP than the T537S mutant ([4]; ratio of K1/2 values): about 2.5 times; times less sensitive to cGMP in comparison with the T537S mutant ([4]; ratio of K1/2 values): about 350 times; times less sensitive to cGMP in comparison with the wild type ([4]; ratio of K1/2 values): about 150 times; times more sensitive to cAMP in comparison with the wild type ([4]; ratio of K1/2 values): ~3 times

B4: T537S: known bovine α3 CNG channel subunit in which threonine 537 is replaced with serine (protein, UniProt Q03041 1-663, looked up, variant T537S)
Cyclic nucleotide-gated …: B1 Cyclic nucleotide-gated … with M537S
Which results are given for B4?
change in fluorescence signal (intracellular Ca2+) (α3-CNG channel; [5]): only a very low increase in the fluorescence signal; relative selectivity: times more selective for cGMP [4]: about 20 times
